US20240327535A1 (EISAI R AND D MANAGEMENT, published 2024)
Changes are numbered by the printed parent chain.

T1: extracellular domain of human BCMA (human, UniProt Q02223 1-54)
T1 construct: amine-linked to Octet AR2G tips; also called hsBCMA; BCMA (human)
T1 sequence: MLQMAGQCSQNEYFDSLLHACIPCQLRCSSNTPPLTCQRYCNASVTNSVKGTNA

B1: AB200-R1a-Fab(hCDR2) (Fab, V domains shown)
VH: QVQLVQSGAEVKKPGSSVKVSCKASGGTFSNYWMHWVRQAPGQGLEWMGATYRGHSDTYYNQKFKGRVTITADKSTSTAYMELSSLRSEDTAVYYCARGAIYHGYDVLDNWGQGTLVTVSS
VL: DIQMTQSPSSLSASVGDRVTITCSASQDISNYLNWYQQKPGKAPKLLIYAASSLQSGVPSRFSGSGSGTDFTLTISSLQPEDFATYYCQQYRKLPWTFGQGTKLEIKR
B2: AB200-R1a-Fab_Vk3 (Fab, V domains shown)
VH: B1 VH
VL: B1 VL with L33I, A50Y, A51T, S53N, L54M, Q55H, T97S
B3: AB200-R1a-Fab_Vk21 (Fab, V domains shown)
VH: B1 VH
VL: B1 VL with A50Y, A51T, S53N, Q55H, Q89H, R92K, L94T
B4: AB200-R1a-Fab_Vk6 (Fab, V domains shown)
VH: B1 VH
VL: B1 VL with S26T, A50F, A51T, S53N
notes: also called AB200 kappa variant 6; AB200_Vk6_Fab
B5: AB200-R1a-Fab_Vk13 (Fab, V domains shown)
VH: B1 VH
VL: B1 VL with Q27N, A50Y, A51S, S53D, Q55H
B6: AB200-R1a-Fab_Vk24 (Fab, V domains shown)
VH: B1 VH
VL: B1 VL with Q27N, D28S, A50Y, S53N, Q55H
B7: AB200-R1a-Fab_Vk14 (Fab, V domains shown)
VH: B1 VH
VL: B1 VL with A50Y, A51S, S53N, L54M, Q55H, Y91F
B8: AB200-R1a-Fab_Vk28 (Fab, V domains shown)
VH: B1 VH
VL: B1 VL with Y32F, A50Y, A51T, S53N, L54M, Q55H, K93S
B9: AB200-R1a-Fab_Vk31 (Fab, V domains shown)
VH: B1 VH
VL: B1 VL with A50Y, A51T, S53N, L54I, Q55H, S56I, T97S
B10: AB200-R1a-Fab_Vk32 (Fab, V domains shown)
VH: B1 VH
VL: B1 VL with I29L, A50Y, A51T, Q55H, L94T
B11: AB200-R1a-Fab_Vk7 (Fab, V domains shown)
VH: B1 VH
VL: B1 VL with Y32F, A50Y, A51T, S53N, Q55H, Y91F, L94M
B12: AB200-R1a-Fab(hCDR1) (Fab, V domains shown)
VH: B1 VH
VL: B1 VL with S24R, D28S, N31S, A50Y, A51T, S53N, Q55H
B13: AB200-R1a-Fab_Vk27 (Fab, V domains shown)
VH: B1 VH
VL: B1 VL with S30T, A50F, A51T, S53N, Q55H, R92Y
B14: AB200-R1a-Fab_Vk36 (Fab, V domains shown)
VH: B1 VH
VL: B1 VL with I29L, A50Y, A51T, S53N, K93R
B15: AB200-R1a-Fab_Vk5 (Fab, V domains shown)
VH: B1 VH
VL: B1 VL with N31S, A50Y, A51T, S53N, Q55H, K93S, L94T
B16: AB200-R1a-Fab_Vk11 (Fab, V domains shown)
VH: B1 VH
VL: B1 VL with S24R, I29V, A50Y, A51T, S52T, S53N, Q55H
B17: AB200-R1a-Fab_Vk29 (Fab, V domains shown)
VH: B1 VH
VL: B1 VL with Q27H, I29V, A50Y, A51T, S53N, Q55H, K93R
B18: AB200-R1a-Fab_Vk18 (Fab, V domains shown)
VH: B1 VH
VL: B1 VL with S24T, A50Y, A51T, S53D, Q55H, S56I
B19: AB200-R1a-Fab_Vk1 (Fab, V domains shown)
VH: B1 VH
VL: B1 VL with S24R, N31S, A50Y, A51T, S53N, L54I, Q55H
B20: AB200-R1a-Fab(hCDR3) (Fab, V domains shown)
VH: B1 VH
VL: B1 VL with A50Y, A51T, S53N, Q55H, Y91S, R92Y, K93S, L94T
B21: AB200-R1a-Fab_Vk22 (Fab, V domains shown)
VH: B1 VH
VL: B1 VL with S24R, A50Y, A51T, S53N, Q55H, K93S, L94I
B22: AB200-R1a-Fab_Vk4 (Fab, V domains shown)
VH: B1 VH
VL: B1 VL with S24T, S26T, S30T, A50Y, A51T, S53N, Q55H
B23: AB200-R1a-Fab_Vk20 (Fab, V domains shown)
VH: B1 VH
VL: B1 VL with Y32F, A50Y, A51T, S53D, Q55H, R92Y
B24: AB200-R1a-Fab_Vk34 (Fab, V domains shown)
VH: B1 VH
VL: B1 VL with Q27H, A50Y, A51T, S53N, Q55H, Q89H, Q90E
B25: AB200-R1a-Fab_Vk26 (Fab, V domains shown)
VH: B1 VH
VL: B1 VL with A50Y, A51S, Q55H, S56I
B26: AB200-R1a-Fab_Vk19 (Fab, V domains shown)
VH: B1 VH
VL: B1 VL with Q27N, L33I, A50Y, A51T, S53N, Q55H, Y91F
B27: AB200-R1a-Fab_Vk17 (Fab, V domains shown)
VH: B1 VH
VL: B1 VL with S26T, A50Y, A51T, S52T, S53N, Q55H, R92Y
B28: AB200-R1a-Fab_Vk23 (Fab, V domains shown)
VH: B1 VH
VL: B1 VL with A50Y, A51T, S53N, L54I, Q55H, R92K, L94M
B29: AB200-R1a-Fab_VH54 (Fab, V domains shown)
VH: B1 VH with S56G, Y59F, D109N
VL: B1 VL with S26T, A50F, A51T, S53N
B30: AB200-R1a-Fab_VH52 (Fab, V domains shown)
VH: B1 VH with T28S, N31D, D57T
VL: B1 VL with S26T, A50F, A51T, S53N
B31: AB200-R1a-Fab_VH56 (Fab, V domains shown)
VH: B1 VH with M34I, K65R, A100T
VL: B1 VL with S26T, A50F, A51T, S53N
B32: AB200-R1a-Fab_VH50 (Fab, V domains shown)
VH: B1 VH with Y52F, G66S, I101V
VL: B1 VL with S26T, A50F, A51T, S53N
B33: AB200-R1a-Fab_VH46 (Fab, V domains shown)
VH: B1 VH with Y59N, F64Y, H103N
VL: B1 VL with S26T, A50F, A51T, S53N
B34: AB200-R1a-Fab_VH8 (Fab, V domains shown)
VH: B1 VH with G54S, K74E, Y102F
VL: B1 VL with S26T, A50F, A51T, S53N
B35: AB200-R1a-Fab_VH60 (Fab, V domains shown)
VH: B1 VH with N31S, G54I, T58S
VL: B1 VL with S26T, A50F, A51T, S53N
B36: AB200-R1a-Fab_VH16 (Fab, V domains shown)
VH: B1 VH with N31T, G54I, K74E
VL: B1 VL with S26T, A50F, A51T, S53N
B37: AB200-R1a-Fab_VH57 (Fab, V domains shown)
VH: B1 VH with F29Y, W33Y, D57E
VL: B1 VL with S26T, A50F, A51T, S53N
B38: AB200-R1a-Fab_VH48 (Fab, V domains shown)
VH: B1 VH with N31D, K63R, L108M
VL: B1 VL with S26T, A50F, A51T, S53N
B39: AB200-R1a-Fab_VH59 (Fab, V domains shown)
VH: B1 VH with S25T, W33A, T51S
VL: B1 VL with S26T, A50F, A51T, S53N
B40: AB200-R1a-Fab_VH32 (Fab, V domains shown)
VH: B1 VH with G54S, G66S, L108I
VL: B1 VL with S26T, A50F, A51T, S53N
B41: AB200-R1a-Fab_VH49 (Fab, V domains shown)
VH: B1 VH with M34I, T51S, L108I
VL: B1 VL with S26T, A50F, A51T, S53N

Target: T2, extracellular domain of rhesus monkey BCMA (rhesus monkey, UniProt F7FFA0 1-53)
T2 construct: extracellular domain; also called RhBCMA
T2 sequence (F7FFA0 entry or part of it): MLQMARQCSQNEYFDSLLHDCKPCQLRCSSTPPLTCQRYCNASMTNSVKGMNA
Assay: Octet BLI; Fab 200 nM

In order of falling Kd:
1. B20  113 nM
2. B24  74.7 nM
3. B3  61.4 nM
4. B10  44.7 nM
5. B28  29.7 nM
6. B15  27.5 nM
7. B11  25.1 nM
8. B5  24.6 nM
9. B25  17.9 nM
10. B6  14.2 nM
11. B23  13.5 nM
12. B7  11.5 nM
13. B18  11 nM
14. B13  10.7 nM
15. B21  9.91 nM
16. B9  8.96 nM
17. B22  7.9 nM
18. B27  7.71 nM
19. B8  7.57 nM
20. B1  7.14 nM
21. B19  6.37 nM
22. B2  6.21 nM
23. B16  5.74 nM
24. B26  5.74 nM
25. B12  5.3 nM
26. B14  5.06 nM
27. B17  4.96 nM
28. B4  4.26 nM

Target: T1, extracellular domain of human BCMA
Assay: Octet BLI; Fab 200 nM

In order of rising Kd:
1. B4  1.11 nM
2. B14  1.43 nM
3. B16  1.53 nM
4. B17  1.55 nM
5. B12  1.58 nM
6. B19  1.75 nM
7. B2  1.84 nM
8. B26  2.07 nM
9. B1  2.14 nM
10. B22  2.2 nM
11. B9  2.36 nM
12. B21  2.48 nM
13. B18  2.93 nM
14. B7  4.03 nM
15. B27  4.45 nM
16. B8  4.87 nM
17. B6  5.11 nM
18. B25  5.56 nM
19. B13  6.39 nM
20. B5  7.14 nM
21. B15  7.83 nM
22. B10  11.7 nM
23. B23  12.8 nM
24. B11  14.7 nM
25. B28  16.8 nM
26. B24  26.5 nM
27. B3  32.7 nM
28. B20  82.8 nM

Target: T2, extracellular domain of rhesus monkey …
Assay: Octet BLI; Fab 200 nM
Remark: another data set of the same source

In order of rising Kd:
1. B34  3.14 nM
2. B40  4.17 nM
3. B32  9.65 nM
4. B37  12 nM
5. B36  15.2 nM
6. B41  15.6 nM
7. B35  17.8 nM
8. B31  18 nM
9. B33  20 nM
10. B29  20.8 nM
11. B30  24.6 nM
12. B38  25 nM
13. B39  28.3 nM

Target: T1, extracellular domain of human BCMA
Assay: Octet BLI; Fab 200 nM
Remark: another data set of the same source

In order of falling Kd:
1. B38  34.5 nM
2. B39  26.2 nM
3. B31  20.7 nM
4. B30  18 nM
5. B36  14.3 nM
6. B35  13.6 nM
7. B29  12 nM
8. B33  11.6 nM
9. B37  11.1 nM
10. B41  6.72 nM
11. B32  4.67 nM
12. B40  1.09 nM
13. B34  0.948 nM
